Kd data for 1 molecule are collected here from US20040054131A1.

The target in this assay is FGFR1c extracellular domain-IgG fusion protein (human) (UniProt P11362). The assay can be described thus: BIAcore real-time kinetic analysis, immobilized FGFR1c ECD, no heparin; approximate apparent affinity. In general terms: SPR reads the build-up and loss of mass on a sensor chip optically.

Where no end group is shown, it is not given here.

Chain of FGFR1c extracellular domain-IgG fusion protein (human) (P11362 22-377): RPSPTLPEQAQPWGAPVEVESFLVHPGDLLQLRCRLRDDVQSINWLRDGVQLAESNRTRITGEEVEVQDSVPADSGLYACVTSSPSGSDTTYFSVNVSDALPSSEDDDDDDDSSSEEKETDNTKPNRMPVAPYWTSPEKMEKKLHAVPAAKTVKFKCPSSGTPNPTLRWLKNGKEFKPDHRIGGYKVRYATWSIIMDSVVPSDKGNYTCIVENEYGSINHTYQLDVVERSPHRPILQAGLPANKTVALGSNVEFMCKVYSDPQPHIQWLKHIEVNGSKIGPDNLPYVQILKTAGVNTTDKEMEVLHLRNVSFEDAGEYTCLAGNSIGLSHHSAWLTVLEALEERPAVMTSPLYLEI

As to AESGDDYCVLVFTDSAWTKICDWSHFRN (Fc fusion, part only; not given: linkers and human IgG1 Fc, not shown: a dimerising Fc or GST, cysteine pairing not given here; also: homodimer, fused to Fc of human IgG1) [C19-Ig fusion protein], the Kd stood at 90 nM.
